Results: article PMC11363328, “Identification of Rocaglate Acyl Sulfamides as Selective Inhibitors of Glioblastoma Stem Cells”

How the values were obtained:
Settings in all cases: protein: recombinant; single strand
[1] = target: T1, eIF4A1 (UniProt P60842 1-406); experiment: fluorescence polarization, protein titration; 50 uM (-)-7, 1 mM ATP; EC50 for complex formation, range for all three compounds; FP: 14.4 mM HEPES-KOH pH 8, 108 mM NaCl, 1 mM MgCl2, 14.4% glycerol, 0.1% DMSO, 2 mM DTT, 1 mM ATP, 10 nM probe, room temperature, 10 min
T1 sequence (P60842 whole entry): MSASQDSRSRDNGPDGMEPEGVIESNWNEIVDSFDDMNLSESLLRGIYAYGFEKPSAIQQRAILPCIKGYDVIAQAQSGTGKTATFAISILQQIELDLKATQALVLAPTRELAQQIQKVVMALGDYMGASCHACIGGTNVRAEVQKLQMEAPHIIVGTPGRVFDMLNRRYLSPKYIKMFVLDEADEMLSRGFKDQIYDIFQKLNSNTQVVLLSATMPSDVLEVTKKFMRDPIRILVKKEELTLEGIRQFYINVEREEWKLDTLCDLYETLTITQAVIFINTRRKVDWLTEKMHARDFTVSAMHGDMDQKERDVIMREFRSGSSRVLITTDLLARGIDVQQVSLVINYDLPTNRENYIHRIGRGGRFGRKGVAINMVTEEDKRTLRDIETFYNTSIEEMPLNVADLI

[2] = target: T1, eIF4A1; experiment: fluorescence polarization, protein titration; 50 uM (-)-5, 1 mM ATP; EC50 for complex formation, range for all three compounds; FP: 14.4 mM HEPES-KOH pH 8, 108 mM NaCl, 1 mM MgCl2, 14.4% glycerol, 0.1% DMSO, 2 mM DTT, 1 mM ATP, 10 nM probe, room temperature, 10 min
[3] = target: T1, eIF4A1; experiment: fluorescence polarization, protein titration; 50 uM (-)-20, 1 mM ATP; EC50 for complex formation, range for all three compounds; FP: 14.4 mM HEPES-KOH pH 8, 108 mM NaCl, 1 mM MgCl2, 14.4% glycerol, 0.1% DMSO, 2 mM DTT, 1 mM ATP, 10 nM probe, room temperature, 10 min

Measured: apparent K (half saturation)

AGAGAGAGAGAGAGAG (ssRNA) [FAM-r(AG)8]
~245 nM: all assays above
